For test [1], the system named is EGFR-Wt. Kind of test: MaMTH EGFR-interactor screen, lentiviral preys against EGFR-wildtype bait (interaction score). The class given is cell-based, human. Conditions: ratio of EGFR-Wt mean to EGFR-L858R mean interaction score. An outline of the steps:
(§1)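 Interaction score is the luciferase fold-change versus averaged negative controls (Fabp5, Pex19, Pex7, GABBR2), with >1 called interacting. Luciferase was measured 24 h after triplicate bait transfection. This followed single-copy prey transduction (MOI ~0.3-0.4) of GAL4UAS-luciferase HEK293T cells and ≥48 h puromycin selection.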

In test [2] the target is T1, EGFR-Wt (Homo sapiens, UniProt P00533).
T1 construct: with the advantage of testing full-length integral membrane proteins; (GGGGS)2 linker-Cub (human ubiquitin aa 35-76)-GAL4(1-147)-mNFkB(364-550) (C); expressed in transfected cells
The description is as above. The class given is cell-based. The settings on record: MaMTH interaction score of prey with EGFR-Wt bait, mean. An outline of the steps:
as §1

Test [3] addresses T2, EGFR-L858R (Homo sapiens, UniProt P00533, L858R).
T2 construct: with the advantage of testing full-length integral membrane proteins; (GGGGS)2 linker-Cub (human ubiquitin aa 35-76)-GAL4(1-147)-mNFkB(364-550) (C); expressed in transfected cells
The test can be described thus: MaMTH EGFR-interactor screen, lentiviral preys against EGFR-L858R bait (interaction score). The class given is cell-based. The settings on record: MaMTH interaction score of prey with EGFR-L858R bait. A digest of the protocol:
as §1

B1: MAPK8IP2 (protein, UniProt Q13387 1-824, looked up)
C-Jun-amino-terminal …: MADRAEMFSLSTFHSLSPPGCRPPQDISLEEFDDEDLSEITDDCGLGLSYDSDHCEKDSLSLGRSEQPHPICSFQDDFQEFEMIDDNEEEDDEDEEEEEEEEEGDGEGQEGGDPGSEAPAPGPLIPSPSVEEPHKHRPTTLRLTTLGAQDSLNNNGGFDLVRPASWQETALCSPAPEALRELPGPLPATDTGPGGAQSPVRPGCDCEGNRPAEPPAPGGTSPSSDPGIEADLRSRSSGGRGGRRSSQELSSPGSDSEDAGGARLGRMISSISETELELSSDGGSSSSGRSSHLTNSIEEASSPASEPEPPREPPRRPAFLPVGPDDTNSEYESGSESEPDLSEDADSPWLLSNLVSRMISEGSSPIRCPGQCLSPAPRPPGEPVSPAGGAAQDSQDPEAAAGPGGVELVDMETLCAPPPPAPAAPRPGPAQPGPCLFLSNPTRDTITPLWAAPGRAARPGRACSAACSEEEDEEDDEEEEDAEDSAGSPGGRGTGPSAPRDASLVYDAVKYTLVVDEHTQLELVSLRRCAGLGHDSEEDSGGEASEEEAGAALLGGGQVSGDTSPDSPDLTFSKKFLNVFVNSTSRSSSTESFGLFSCLVNGEEREQTHRAVFRFIPRHPDELELDVDDPVLVEAEEDDFWFRGFNMRTGERGVFPAFYAHAVPGPAKDLLGSKRSPCWVERFDVQFLGSVEVPCHQGNGILCAAMQKIATARKLTVHLRPPASCDLEISLRGVKLSLSGGGPEFQRCSHFFQMKNISFCGCHPRNSCYFGFITKHPLLSRFACHVFVSQESMRPVAQSVGRAFLEYYQEHLAYACPTEDIYLE
As for B1, the Wt/L858R in test [1] stood at 0.93. This molecule gave an EGFR-Wt mean in test [2] of 1.52. The molecule further returned an EGFR-L858R mean in test [3] of 1.63.

B2: SOCS6 (protein, UniProt O14544 1-535, looked up)
Suppressor of cytokine …: MKKISLKTLRKSFNLNKSKEETDFMVVQQPSLASDFGKDDSLFGSCYGKDMASCDINGEDEKGGKNRSKSESLMGTLKRRLSAKQKSKGKAGTPSGSSADEDTFSSSSAPIVFKDVRAQRPIRSTSLRSHHYSPAPWPLRPTNSEETCIKMEVRVKALVHSSSPSPALNGVRKDFHDLQSETTCQEQANSLKSSASHNGDLHLHLDEHVPVVIGLMPQDYIQYTVPLDEGMYPLEGSRSYCLDSSSPMEVSAVPPQVGGRAFPEDESQVDQDLVVAPEIFVDQSVNGLLIGTTGVMLQSPRAGHDDVPPLSPLLPPMQNNQIQRNFSGLTGTEAHVAESMRCHLNFDPNSAPGVARVYDSVQSSGPMVVTSLTEELKKLAKQGWYWGPITRWEAEGKLANVPDGSFLVRDSSDDRYLLSLSFRSHGKTLHTRIEHSNGRFSFYEQPDVEGHTSIVDLIEHSIRDSENGAFCYSRSRLPGSATYPVRLTNPVSRFMQVRSLQYLCRFVIRQYTRIDLIQKLPLPNKMKDYLQEKHY
Turning to B2, the Wt/L858R in test [1] amounted to 0.21. For the same molecule, the EGFR-Wt mean in test [2] is listed as 1.22. The EGFR-L858R mean in test [3] stood at 5.90.

B3: PTPN2 (protein, UniProt P17706 1-415, looked up)
Tyrosine-protein phosphatase …: MPTTIEREFEELDTQRRWQPLYLEIRNESHDYPHRVAKFPENRNRNRYRDVSPYDHSRVKLQNAENDYINASLVDIEEAQRSYILTQGPLPNTCCHFWLMVWQQKTKAVVMLNRIVEKESVKCAQYWPTDDQEMLFKETGFSVKLLSEDVKSYYTVHLLQLENINSGETRTISHFHYTTWPDFGVPESPASFLNFLFKVRESGSLNPDHGPAVIHCSAGIGRSGTFSLVDTCLVLMEKGDDINIKQVLLNMRKYRMGLIQTPDQLRFSYMAIIEGAKCIKGDSSIQKRWKELSKEDLSPAFDHSPNKIMTEKYNGNRIGLEEEKLTGDRCTGLSSKMQDTMEENSESALRKRIREDRKATTAQKVQQMKQRLNENERKRKRWLYWQPILTKMGFMSVILVGAFVGWTLFFQQNAL
With B3, the Wt/L858R in test [1] was found to be 0.93. Besides, the EGFR-Wt mean in test [2] came out at 1.27. Further, the EGFR-L858R mean in test [3] is recorded as 1.36.

B4: PRKCE (protein, UniProt Q02156 1-737, looked up)
Protein kinase C epsilon type: MVVFNGLLKIKICEAVSLKPTAWSLRHAVGPRPQTFLLDPYIALNVDDSRIGQTATKQKTNSPAWHDEFVTDVCNGRKIELAVFHDAPIGYDDFVANCTIQFEELLQNGSRHFEDWIDLEPEGRVYVIIDLSGSSGEAPKDNEERVFRERMRPRKRQGAVRRRVHQVNGHKFMATYLRQPTYCSHCRDFIWGVIGKQGYQCQVCTCVVHKRCHELIITKCAGLKKQETPDQVGSQRFSVNMPHKFGIHNYKVPTFCDHCGSLLWGLLRQGLQCKVCKMNVHRRCETNVAPNCGVDARGIAKVLADLGVTPDKITNSGQRRKKLIAGAESPQPASGSSPSEEDRSKSAPTSPCDQEIKELENNIRKALSFDNRGEEHRAASSPDGQLMSPGENGEVRQGQAKRLGLDEFNFIKVLGKGSFGKVMLAELKGKDEVYAVKVLKKDVILQDDDVDCTMTEKRILALARKHPYLTQLYCCFQTKDRLFFVMEYVNGGDLMFQIQRSRKFDEPRSRFYAAEVTSALMFLHQHGVIYRDLKLDNILLDAEGHCKLADFGMCKEGILNGVTTTTFCGTPDYIAPEILQELEYGPSVDWWALGVLMYEMMAGQPPFEADNEDDLFESILHDDVLYPVWLSKEAVSILKAFMTKNPHKRLGCVASQNGEDAIKQHPFFKEIDWVLLEQKKIKPPFKPRIKTKRDVNNFDQDFTREEPVLTLVDEAIVKQINQEEFKGFSYFGEDLMP
For the molecule B4, the Wt/L858R in test [1] came to 0.93. The molecule also came in with an EGFR-Wt mean in test [2] of 6.30. In test [3], this molecule returned an EGFR-L858R mean of 6.77.

B5: SNX9 (protein, UniProt Q9Y5X1 1-595, looked up)
Sorting nexin-9: MATKARVMYDFAAEPGNNELTVNEGEIITITNPDVGGGWLEGRNIKGERGLVPTDYVEILPSDGKDQFSCGNSVADQAFLDSLSASTAQASSSAASNNHQVGSGNDPWSAWSASKSGNWESSEGWGAQPEGAGAQRNTNTPNNWDTAFGHPQAYQGPATGDDDDWDEDWDGPKSSSYFKDSESADAGGAQRGNSRASSSSMKIPLNKFPGFAKPGTEQYLLAKQLAKPKEKIPIIVGDYGPMWVYPTSTFDCVVADPRKGSKMYGLKSYIEYQLTPTNTNRSVNHRYKHFDWLYERLLVKFGSAIPIPSLPDKQVTGRFEEEFIKMRMERLQAWMTRMCRHPVISESEVFQQFLNFRDEKEWKTGKRKAERDELAGVMIFSTMEPEAPDLDLVEIEQKCEAVGKFTKAMDDGVKELLTVGQEHWKRCTGPLPKEYQKIGKALQSLATVFSSSGYQGETDLNDAITEAGKTYEEIASLVAEQPKKDLHFLMECNHEYKGFLGCFPDIIGTHKGAIEKVKESDKLVATSKITLQDKQNMVKRVSIMSYALQAEMNHFHSNRIYDYNSVIRLYLEQQVQFYETIAEKLRQALSRFPVM
Regarding B5, the Wt/L858R in test [1] is on record as 0.88. In test [2], the EGFR-Wt mean was determined as 1.67. Also, the EGFR-L858R mean in test [3] is recorded as 1.89.

B6: GRB10 (protein, UniProt Q13322 1-594, looked up)
Growth factor receptor-bound …: MALAGCPDSFLHHPYYQDKVEQTPRSQQDPAGPGLPAQSDRLANHQEDDVDLEALVNDMNASLESLYSACSMQSDTVPLLQNGQHARSQPRASGPPRSIQPQVSPRQRVQRSQPVHILAVRRLQEEDQQFRTSSLPAIPNPFPELCGPGSPPVLTPGSLPPSQAAAKQDVKVFSEDGTSKVVEILADMTARDLCQLLVYKSHCVDDNSWTLVEHHPHLGLERCLEDHELVVQVESTMASESKFLFRKNYAKYEFFKNPMNFFPEQMVTWCQQSNGSQTQLLQNFLNSSSCPEIQGFLHVKELGKKSWKKLYVCLRRSGLYCSTKGTSKEPRHLQLLADLEDSNIFSLIAGRKQYNAPTDHGLCIKPNKVRNETKELRLLCAEDEQTRTCWMTAFRLLKYGMLLYQNYRIPQQRKALLSPFSTPVRSVSENSLVAMDFSGQTGRVIENPAEAQSAALEEGHAWRKRSTRMNILGSQSPLHPSTLSTVIHRTQHWFHGRISREESHRIIKQQGLVDGLFLLRDSQSNPKAFVLTLCHHQKIKNFQILPCEDDGQTFFSLDDGNTKFSDLIQLVDFYQLNKGVLPCKLKHHCIRVAL
For B6, the Wt/L858R in test [1] was determined as 0.90. The molecule further returned an EGFR-Wt mean in test [2] of 3.14. Moreover, the EGFR-L858R mean in test [3] is given as 3.49.

These data come from patent US9958461B2, “Detection of protein to protein interactions” (THE GOVERNING COUNCIL OF THE UNIVERSITY OF TORONTO, priority 2013, dated 2018).
